Experimental findings from patent US20100247430A1 (published 2010) are described below.

For this test, the target named is Dlg1 (endogenous, mouse T cells) (mouse, UniProt Q811D0 1-905, limits assumed). As to the kind of experiment: co-immunoprecipitation from activated mouse CD4+ T cell extracts, anti-Dlg1 IP, anti-Crtam immunoblot. How it is done:
(A) Naïve CD4⁺ T cells from Crtam^{-/+} and Crtam^{-/-} mice were activated for the indicated times and cell extracts were immunoprecipitated with Abs against Scrib (upper panels) or Dlg1 (lower panels). Immune complexes were then analyzed by immunoblotting against Crtam. Data shown are representative of five independent experiments.
To assess the interaction of Crtam and PDZ-containing proteins, microbead purified CD4⁺ T cells were stimulated with plate-bound […] (10 μg/ml) and anti-CD28 (2 μg/ml) mAbs, whole cell extracts were immunoprecipitated using anti-Scrib antibody (K-21, Santa Cruz) and immune complexes analyzed by immunoblotting with anti-Crtam mAb (6E2, Genentech) or anti-Scrib Ab (H-300, Santa Cruz). The control experiment was performed using anti-Dlg1 Ab (H-60, Santa Cruz) for immunoprecipitation. […] Crtam-Flag was immunoprecipitated using anti-Flag M2-agarose beads (Sigma) and immune complexes were analyzed by immunoblotting with anti-GST (GE Healthcare Bio-Sciences) or anti-Crtam (6E2) mAbs.
To define the mechanism(s) by which Crtam regulates T cell morphology, we analyzed the ability of Scrib and Dlg1 to co-immunoprecipitate with Crtam in resting and activated T cells (FIG. 5A). Crtam was detected in Scrib, but not Dlg1, immunoprecipitates 14 h following TCR activation. […]

Dlg1 (endogenous, mouse T cells), sequence (Q811D0 whole entry): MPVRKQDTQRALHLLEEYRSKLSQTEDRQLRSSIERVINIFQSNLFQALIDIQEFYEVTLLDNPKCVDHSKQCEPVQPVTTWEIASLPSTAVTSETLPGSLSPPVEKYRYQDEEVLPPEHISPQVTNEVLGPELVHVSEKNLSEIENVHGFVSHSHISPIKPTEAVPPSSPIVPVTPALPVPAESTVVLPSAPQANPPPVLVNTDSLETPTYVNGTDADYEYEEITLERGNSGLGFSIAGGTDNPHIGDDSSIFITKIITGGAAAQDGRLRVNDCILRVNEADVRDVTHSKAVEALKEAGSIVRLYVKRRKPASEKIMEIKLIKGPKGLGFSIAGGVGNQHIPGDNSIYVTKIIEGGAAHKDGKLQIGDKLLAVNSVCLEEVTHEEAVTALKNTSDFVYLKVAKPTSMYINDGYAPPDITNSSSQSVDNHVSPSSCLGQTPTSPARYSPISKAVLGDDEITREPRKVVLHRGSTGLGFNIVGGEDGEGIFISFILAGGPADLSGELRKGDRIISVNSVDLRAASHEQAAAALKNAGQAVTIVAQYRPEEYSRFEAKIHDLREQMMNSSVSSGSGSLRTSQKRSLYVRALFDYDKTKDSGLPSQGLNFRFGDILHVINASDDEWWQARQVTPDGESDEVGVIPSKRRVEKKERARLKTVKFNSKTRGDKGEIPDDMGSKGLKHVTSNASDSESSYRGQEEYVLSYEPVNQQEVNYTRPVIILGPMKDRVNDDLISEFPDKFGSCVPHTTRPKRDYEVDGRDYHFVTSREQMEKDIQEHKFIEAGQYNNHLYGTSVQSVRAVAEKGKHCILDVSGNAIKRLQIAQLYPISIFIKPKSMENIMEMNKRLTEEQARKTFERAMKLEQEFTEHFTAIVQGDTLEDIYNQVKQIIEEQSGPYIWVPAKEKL

B1: mouse Crtam (endogenous, on activated mouse T cells) (receptor)
chain: AFLKMETVTVEEGQTLTLTCVTSQTKNVSLQWLAPSGFTIFLNQHPALKSSKYQLLHHSATQLSISVSNVTLREEGVYTCLHYGSSVKTKQVRVTVLVTPFQPTVEALVLRRQNGEKSVVLKCSTERSKPPPQITWLLGEGLEIYGELHHEFEADGKICNTSSTLIARAYGKNSTVHCIIQHEGLHGRKLVAPFQFEDLVADQETTSDAPEQSSLSSQALQQPTSTVSMMENSSIPETDKEEKEHATQDPGLSTASAQHTGLARRKSGILLLTLVSFLIFILFIIVQLFIMKLRKAHVVWKKESEISEQALESYRSRSNNEETSSQENSSQAPQSKRCMNYITQLYSGAKTKKSAQHWKLGGKHSRVPESIV
notes: Endogenous protein of mouse CD4+ or CD8+ T cells; In the co-immunoprecipitations it came from whole cell extracts; In flow cytometry and the Cadm1(ECD)-Fc assay it was on the cell surface; also called class-I MHC restricted T-cell associated molecule
With B1, the binding result is listed as “no binding”.
